Patent US20110158936A1 (LORUS THERAPEUTICS, published 2011)

T1: murine interleukin 17E receptor present on the pre-B cell line 70Z/3 (murine, UniProt Q9JIP3 18-499)
T1 construct: whole, on cells; This is the endogenous receptor on 70Z/3 cells; also called murine IL-17E receptor; IL-17E receptor
T1 sequence (looked up): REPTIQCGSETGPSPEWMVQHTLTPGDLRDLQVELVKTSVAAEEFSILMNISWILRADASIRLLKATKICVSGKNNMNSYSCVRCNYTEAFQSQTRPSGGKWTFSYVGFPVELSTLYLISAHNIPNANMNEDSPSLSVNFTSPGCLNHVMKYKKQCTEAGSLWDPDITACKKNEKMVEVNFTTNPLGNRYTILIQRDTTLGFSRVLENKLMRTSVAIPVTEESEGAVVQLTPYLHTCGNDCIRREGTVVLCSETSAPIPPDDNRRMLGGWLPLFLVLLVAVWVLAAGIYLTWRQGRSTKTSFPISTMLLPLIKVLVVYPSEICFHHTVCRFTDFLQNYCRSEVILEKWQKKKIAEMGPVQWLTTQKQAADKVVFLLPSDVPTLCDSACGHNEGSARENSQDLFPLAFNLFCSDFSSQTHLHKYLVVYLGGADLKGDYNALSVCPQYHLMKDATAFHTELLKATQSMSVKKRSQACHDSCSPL

B1: recombinant human interleukin 17E (ligand)
chain: YSHWPSCCPSKGQDTSEELLRWSTVPVPPLEPARPNRHPESCRASEDGPLNSRAISPWRYELDRDLNRLPQDLYHARCLCPHCVSLQTGSHMDPRGNSELLYHNQTVFYRRPCHGEKGTHKGYCLERRLYRVSLACVCVRPRVMG
notes: also called human IL-17E; hIL-17E
B2: murine interleukin 17E (ligand)
chain: VSLRIQEGCSHLPSCCPSKEQEPPEEWLKWSSASVSPPEPLSHTHHAESCRASKDGPLNSRAISPWSYELDRDLNRVPQDLYHARCLCPHCVSLQTGSHMDPLGNSVPLYHNQTVFYRRPCHGEEGTHRRYCLERRLYRVSLACVCVRPRVMA
notes: also called murine IL-17E; mIL-17E

Columns and labels:
[1] = target: T1, murine interleukin 17E receptor present …; test: FACS on 70Z/3 cells incubated with IL-17E (1 ug/10^6 cells), detected with biotin-conjugated goat anti-human IL17E and PE-Cy5.5 streptavidin
Experimental: (§1) The ability of human and murine interleukin 17E to bind to the IL-17E receptor was examined using the murine pre-B cell line 70Z/3 (Paige, C. J., et al. (1981) Nature 292:631-3).
(§2) Fluorescence-Activated Cell Sorter (FACS) Analysis: 1×10⁶ 70Z/3 cells/sample were incubated with either murine or human IL-17E (1 μg/10⁶ cells) for 30 minutes at 4° C. After washing twice, cells that had been incubated with murine IL-17E were incubated with biotin-conjugated goat anti-mouse IL17E and phycoerythrin (PE)-Cy5.5-conjugated streptavidin. Cells that had been incubated with human IL-17E were incubated with biotin-conjugated goat anti-human IL17E-biotin and phycoerythrin (PE)-Cy5.5-conjugated streptavidin. As negative controls, cells were stained with antibodies as described without preincubation with human or murine IL-17E. Samples were then fixed with 0.5% paraformaldehyde prior to FACS analysis.

[2] = target: T1, murine interleukin 17E receptor present …; test: FACS on 70Z/3 cells incubated with IL-17E (1 ug/10^6 cells), detected with biotin-conjugated goat anti-mouse IL17E and PE-Cy5.5 streptavidin
Experimental: as §1, §2

Binder	binding result [1]	binding result [2]
B1	binds	–
B2	–	binds
